One assay concerns the target T1, human PCNA (Homo sapiens, UniProt P12004).
T1 construct: His6 (C); made in house; host or cells: E. coli Codon Plus BL21(DE3) pLysS
In words: Isothermal titration calorimetry (ITC), PIP peptide titrated into wild-type PCNA. In kind it is binding. The text has this:
The wild-type and R426D peptides were expressed as GST fusions in E. coli, purified to homogeneity (see Materials and Methods) and used in isothermal titration calorimetry (ITC) assays with human PCNA purified from E. coli.
Recombinant PCNA, PCNA-Y250I, and the PIP peptides (wild-type, R426D) were expressed and purified as described in the Supplementary Materials section—“Expression and purification of recombinant proteins”. The proteins were dialyzed against three 4-litre changes of ITC buffer containing 10 mM sodium phosphate, pH 7.0, and 10 mM NaCl at 4 °C overnight. The concentrations of PCNA and PIP peptides were determined by measuring tyrosine absorption at A280nm. ITC titrations of peptides into PCNA were performed at 23 °C in the ITC buffer (10 mM sodium phosphate, pH 7.0, 10 mM NaCl) using a MicroCal VP-ITC system. The concentrations of injected wild-type and mutant PIP in the syringe varied from 200 to 500 μM, whereas PCNA in the ITC sample cell varied depending on the experiment from 20 to 50 μM PCNA monomer. The protein and peptide samples were degassed before the ITC run. Data analysis was performed using the MicroCal Origin 7.0 software (OriginLab Corporation, Northampton, MA, USA) and all experiments fit the single binding site model.
Supplementary Materials-Expression and purification of recombinant proteins
S1. Expression and purification of GST-PIP fusion proteins in Escherichia coli Wild-type p150 PIP and R426D peptides were constructed as GST-fusion proteins with a tyrosine at the C-terminus of the peptide. The C-terminal tyrosine was added to aid in peptide detection during the purification by measuring the absorbance at 280 nm. The DNA fragments encoding the GST fusion proteins were inserted into a pGEX-TEV vector, which is essentially a modified pGEX-2T vector where the thrombin cleavage site was replaced with a TEV cleavage site. The pGEX-TEV plasmid was digested with BamHI and EcoRI and ligated to DNA fragments encoding either the p150 PIP wild-type and R426D. The plasmids pGEX-TEV-PIP wild type and pGEX-TEV-PIP R426D were con-firmed by DNA sequencing and then expressed in Escherichia coli host strain TOPP2 (Strat-agene) with 100 µg/ml ampicillin to saturation at 37°C. The next day, the saturated cells were diluted to 0.05 OD measured at A600 nm and the cells were grown at 37°C until the cells reach the mid-exponential phase of 0.6-0.8 at OD A600 nm. The cells were then in-duced with 1 mM isopropyl-D-thiogalactopyranoside (IPTG) for 4 h. Eight litres of cell culture were grown each for the wild-type and R426D mutant. The cells were then har-vested by centrifugation in an Avanti J-26XP high-performance centrifuge from Beckman Coulter with a fixed angle rotor (JLA-8.1000) at 9000 x g for 30 min at 4°C. The pellet from 1 litre cells equivalent was lysed in 10 ml of lysis buffer containing 20 mM Tris pH 7.5, 1 M NaCl, 0.2 mM EDTA, 1 mM DTT, 50 µg/ml lysozyme, 1 mM AEBSF and one tablet of cOmplete™ Mini EDTA-free Protease Inhibitor Cocktail Tablets (Roche). The cell pellet was sonicated in the lysis buffer on ice, at power output level 4 with 10 seconds pulse on and 30 seconds off at 6 watts using a Misonix 3000 Ultrasonic cell disruptor and wider probe. The lysate was clarified by centrifugation for 30 min in an Avanti J-26XP with a fixed angle rotor 25.50 at 30966 x g at 4°C. The clarified supernatant was incubated on a nutator for 6 h at 4°C with 10 ml of glutathione-Sepharose (GSH) resin (Amersham) pre-washed and equilibrated with lysis buffer. After incubation the GSH resin was pelleted, the unbound supernatant was removed, and the resin was washed thrice with lysis buffer and twice with Tobacco Etch Virus (TEV) protease buffer (20 mM sodium phosphate pH 6.5, 50 mM NaCl, 2 mM DTT). The peptide was cleaved from the GSH resin by incubating in the presence of TEV protease overnight at 4°C. The next day, the supernatant was har-vested by centrifugation, and the GSH resin was washed twice with 20 mM sodium phos- […]

The next assay has as its system mouse NIH3T3 cells. In words: Localization of GFP-p150 relative to PCNA replication foci in mid S-phase NIH3T3 cells. Conditions: for localization to heterochromatin foci: DAPI staining. In kind it is cell-based. The text has this: Cells in early S-phase show numerous small PCNA foci distributed throughout the nucleus. These foci can be resolved from each other using super-resolution microscopy but are difficult to resolve from each other by confocal microscopy. This makes protein localization to early S-phase PCNA foci difficult to assess using conventional tools for microscopy. Mid S-phase is the stage when perinuclear and peri-nucleolar chromatin are replicated. The corresponding PCNA foci are relatively large and distant from each other, making co-localization of a protein of interest with PCNA straightforward. Late S-phase is the stage when pericentric heterochromatin replicates. […] Because of these constraints, we focused our attention on cells with patterns of PCNA foci characteristic of mid S-phase. As reported in previous studies, we observed a distinct immunostaining pattern for PCNA with the monoclonal antibody PC10. During mid S-phase, staining of PCNA with PC10 occurred within foci located around the periphery of the nuclear envelope (Figure 4B, top panel, PC10). […] Asynchronously proliferating mouse NIH 3T3 cells were transduced with lentiviral vectors, and expression of wild-type and mutant forms of GFP-p150 was induced with doxycycline. Cells were fixed and permeabilized for PCNA detection with the PC10 monoclonal antibody. Mid-S phase cells were identified based upon their stereotypical pattern of PCNA staining at the nuclear periphery. […] The Pearson’s correlation coefficient of GFP WT-mp150 was 0.6, and 0.25 for the mutant GFP-p150 R426D. This is consistent with previous observations, that when CAF-1 is unable to bind to PCNA, it prematurely associates with pericentric heterochromatin in early and mid S-phase.
To study the localization of GFP CAF-1 p150 wild-type and mutants relative to that of PCNA, cDNAs encoding mouse p150 were cloned into a doxycycline-inducible lentiviral vector pCW-Cas9 plasmid encoding a TetON (minimal CMV) promoter (Addgene plasmid 50661). The Cas9 insert was replaced by wild-type or mutant mouse CAF-1 p150 using the restriction enzymes NheI and BamHI. GFP-p150 wild-type and mutant fusion proteins were excised from the EGFP-C1 vector (Clonetech) using Nhe1 and BamH1 restriction enzymes as previously reported. NheI and BamHI digested fragments were run on 0.8% agarose gel and the corresponding DNA bands: vector—pCW-Cas9 (7036 bp) and inserts—wild-type mp150, R426D (3983 bp) were gel purified using Qiagen DNA extraction spin prep columns. Purified DNAs were ligated using the Takara DNA ligase enzyme, following the manufacturer’s recommended protocol. Positive clones were selected on Luria-Bertani medium containing 100 µg/mL ampicillin, and after DNA isolation, the clones were verified by DNA sequencing. […]

Assay [1] has as its target T2, proliferating cell nuclear antigen (PCNA), wild type (human, UniProt P12004 1-261).
T2 construct: human PCNA purified from E. coli; Homo-trimeric ring (88.7 kDa as printed); Human is stated for the ITC; In the functional rows PCNA is the endogenous protein of the human HEK-293 S100 extract; also called human PCNA; source: E. coli, purified
Briefly: ITC; peptide (200 to 500 uM in the syringe) titrated into PCNA (20 to 50 uM monomer in the cell); 10 mM sodium phosphate pH 7.0, 10 mM NaCl, 23 °C; single binding site model; apparent Kd. Conditions: both partners purified. (In ITC the heat of successive injections is recorded.)

No end group written: not given here.

T2 sequence (P12004 whole entry): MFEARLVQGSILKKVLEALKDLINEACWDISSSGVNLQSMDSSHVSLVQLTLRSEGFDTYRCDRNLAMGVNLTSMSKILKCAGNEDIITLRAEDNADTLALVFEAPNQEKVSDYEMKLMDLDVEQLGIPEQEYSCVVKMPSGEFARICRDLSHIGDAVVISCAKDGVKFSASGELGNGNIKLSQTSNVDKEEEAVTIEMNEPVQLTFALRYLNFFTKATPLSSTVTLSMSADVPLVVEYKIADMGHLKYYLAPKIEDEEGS
T1 sequence (P12004 whole entry): as above

For “KAEITDFFQKPKT [CAF-1 PIP R426D, R426D p150 PIP expressed as GST fusion with C-terminal tyrosine, TEV-cleaved and purified, used for ITC]”, at human PCNA (ITC at 296 K, 10 mM Na-phosphate (pH 7.0), 10 mM NaCl, R426D), the “Kd (result in words)” value was “No binding”. Besides, the “heat exchange / binding to wild-type PCNA” value on human PCNA (ITC, 23 °C, 10 mM sodium phosphate, pH 7.0, 10 mM NaCl) is “did not observe any heat exchange”.

B1: GFP-p150 R426D: GFP fusion of mouse CAF-1 p150 with R426D mutation (protein, UniProt Q9QWF0 1-911, looked up, variant R426D)
Chromatin assembly factor 1 …: MLEEPEAATRTAAAVDCKDRPGFPVKRLIQARLPFKRLNLVPKEKVEEDTSPKAAVESKVPDLQLSLGTFESQCHTGSHVGLSTKLVGGQGPIDSFLRATIKPVPSVVIIDLTENCSDIPDSPEGHSELSPDTAGVVTTVEGAAKQQEHSAAELCLLETPSDITCHMEEEPGSPGDPKRTGDCQAGSLQSCPELTPGSRTCPTKELSSWSKAGDLLFIEKVPVVVLEDILATKPSIASLPMMSLDRSVTSESEILESCPEDDSILSHSSTNSSSPTSSPEGPSTPPEHRGGRSSPSTPACRVAKNFVKGSTEKGRSKLHRDREQQREEKEKLREEIRRAKEEARKKKEEEKELKEKERREKREKDEKEKAEKQRLKEEKRKERQEALEAKLEEKRKKEEEKRLREEEKRLREEEKRIKAEKAEITDFFQKPKTPQAPKTLAGSCGKFAPFEIKEHMVLAPRCRAALDQDLCDQLDQLLQQQSVASTFLSDLKSRLPLRSGPTRVCGHDTDIMNRDVVIVESSKVDGVSERKKFGRMKLLQFSENHRPAYWGTWNKKTAIIRPRNPWAQDKDLLDYEVDSDDEWEEEEPGESLSHSEGDEDDDVGEDEDEDDGFFVPHGYLSEDEGVTEECADPENHKVHQKLKAKEWDELLAKGKRFRVLQPVHVGCVWASEAANCTSSDLKLLQQFTACLLDVASPDEPEPGASRREKRDQHILAQLLPLLHGNVNGSKVIIHEFQEQCRRGLLTLPSPTPHLQMPNLEDAVAVPSKARLKRLISENSAYEKRPNFRMCWYVHPEVLKSFGQECLPVPCQWTYITTMPSAPREDSGSASTEGPGQSTPMLLKRKPAATMCITQFMKKRRYDGQVGSGDMDGFQADTEEDEEDDTDCMIIDVPDVGSDVSEAPIPAPTLCK
modifications: GFP fusion
notes: GFP fusion of mouse CAF-1 p150 with R426D mutation
B1: in the assay on mouse NIH3T3 cells (GFP-p150 vs PCNA (PC10), mid S-phase NIH3T3 cells, doxycycline 2 µg/mL), the “Pearson’s correlation coefficient” value is reported as 0.25. Further, the “localization to heterochromatin foci” value in the assay on mouse NIH3T3 cells (mid S-phase) was “anomalously found largely within the nuclear interior and the large heterochromatic foci”; in the assay with mouse NIH3T3 cells (mid S-phase, listed as CAF-1 p150 R426D), “more localized to the pericentric heterochromatin”. In the assay on mouse NIH3T3 cells (mid S-phase, confocal microscopy, PC10 staining), the “localization to PCNA foci at nuclear periphery” value was “did not co-localize with PCNA foci at the nuclear periphery”.
By stoichiometry N is commonly meant a count of units in the complex or per binding partner. For the molecule IKAEKAEITRFFQKPKTPQA (also: expressed as a GST fusion) [CAF-1 PIP wild-type peptide (expressed as a GST fusion)], in assay [1], the Kd was 24 µM, the dH was -1.87 kcal/mol and the “stoichiometry N” value came out at 0.83.

The record behind these values is PMC9570017, “Unorthodox PCNA Binding by Chromatin Assembly Factor 1” (International Journal of Molecular Sciences, 2022).
